Results from publication PMC2474647.

Biological target: GST-HP1β (UniProt P83917)
Test: pull-down; GST-HP1β bound to glutathione beads, in nuclear extraction buffer, incubated with FLAG-TIF1βs purified from 293T cells by FLAG peptide elution; Western blot quantified with ImageGauge, normalised to GST-HP1β

Chain of UniProt P83917 (P83917 whole entry): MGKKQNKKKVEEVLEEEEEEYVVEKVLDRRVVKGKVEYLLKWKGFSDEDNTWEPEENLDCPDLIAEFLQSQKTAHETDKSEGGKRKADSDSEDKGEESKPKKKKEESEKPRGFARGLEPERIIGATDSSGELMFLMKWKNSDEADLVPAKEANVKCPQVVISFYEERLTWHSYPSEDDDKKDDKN

Row | relative level pulled down by GST-HP1β (normalised to GST-HP1β) | Substance
1 | 1.39 | FLAG-TIF1β (wild type), expressed in 293T cells (natural protein)
2 | 1.63 | FLAG-TIF1β/S473A, expressed in 293T cells (natural protein)
